Test [1] has as its system amino acid at a terminal position of a polypeptide. Conditions: Table 2; amino acid identity at a terminal position (phosphotyrosine also internal); inferred from literature and/or demonstrated by the inventors; cited from earlier work.
The subject of test [2] is immobilized peptides containing N-terminal R, K or H. The test is described as follows: Biolayer interferometry of UBR-box domain homologs. The class given is binding. Conditions: for binding to RA/KA/HA peptides (single-point screening): 30° C., XAKLDEESILKQK; for binding range for RX dipeptides / dissociation rates with R dipeptides: 14 peptides RXGGGDDDFFK (SEQ ID NO: 241); for binding affinity to N-terminal R with different penultimate amino acids: 14 polypeptides containing N-terminal R. As for the experimental part:
The amino acid binding properties of UBR-box domain homologs were evaluated by biolayer interferometry. Peptides containing an N-terminal arginine (R), followed by different amino acids in the penultimate position, were immobilized on a biolayer interferometry sensor surface, allowed to bind to UBR-box protein, and incubated in buffer to allow the UBR-box molecules to dissociate. […] FIG. 32C is a heatmap showing results measured for 24 UBR-box homologs against 14 polypeptides containing N-terminal R followed by different amino acids in the penultimate position.
UBR proteins bind to the basic N-terminal residues R, K, and H as part of the conserved N-end rule pathway. To identify high-affinity UBR proteins with properties favorable for use in sequencing, a diverse panel of uncharacterized UBR-box domain homologs from 44 species (PS501-PS544) was designed. UBR-box domain homologs were expressed, purified, and evaluated for binding to N-terminal amino acids by biolayer interferometry. Measurements were carried out at 30° C. for each protein for R, K and H binding. The amino-acid binding profile of each new homolog was first evaluated by biolayer interferometry using a single-point screening assay. All peptides in this screen contained a penultimate alanine (A) and consisted of the sequence XAKLDEESILKQK (SEQ ID NO: 238), where X is R, K, or H.
To evaluate the effect of penultimate amino acids on arginine binding, UBR box-domain homologs were evaluated for binding to 14 different peptides with N-terminal RX (peptide sequence: RXGGGDDDFFK (SEQ ID NO: 241)). The selected RX dipeptides are the 14 most frequently found in the human proteome.
In general terms: Biolayer interferometry detects binding as a change in optical thickness at a sensor tip.

Test [3] concerns peptides with different N-terminal amino acids, penultimate alanine. Nature of the test: Biolayer interferometry of multivalent amino acid binders. In kind it is binding. As for the experimental part:
The amino acid binding profile of each Bis-atClpS2-V1 binder (PS609, PS610, and PS611) was evaluated by biolayer interferometry as described above. The monovalent atClpS2-V1 was run as a control. Measurements with each binder were carried out for the amino acids F, Y, and W, along with I, L, M, and V as negative controls. All peptides contained a penultimate alanine (A). Response curves for the tandem binders PS609, PS610, and PS611 are shown in FIGS. 35B, 35C, and 35D, respectively.
The multivalent binder PS612 is a polypeptide that contains tandem copies of two different ClpS protein monomers (atClpS2-V1 and PS372). The amino acid binding profile of PS612 was evaluated by biolayer interferometry as described above. The monovalent binders atClpS2-V1 and PS372 were separately run as controls.
The multivalent binder PS614 is a polypeptide that contains two copies of the ClpS binder PS372 oriented in tandem. The amino acid binding profile of PS614 was evaluated by biolayer interferometry as described above.
The multivalent binders PS637, PS638, and PS639 are polypeptides that each contain two copies of the ClpS binder PS557 oriented in tandem and separated by Linker 1, Linker 2, and Linker 3, respectively. The amino acid binding profiles of each binder was evaluated by biolayer interferometry as described above.

Test [4] relates to FA, LF, WA, and YA peptides. The test is described as follows: Binder-on-chip single-molecule assay (PS218 and wild-type atClpS1). On the set-up: unit not given here. In kind it is binding. As for the experimental part:
A variant of atClpS1 was created with active-site substitutions rationally designed to achieve longer pulse widths which can be favorable in single-molecule sequencing reactions. The designed variant (PS218) contains the following mutations relative to wild-type atClpS1: M51F, E52Q, M73T, T70 W. Binder-on-chip experiments were performed for PS218 with FA, LF, WA, and YA peptides to evaluate recognition by signal pulse detection in single-molecule assays. As shown by the results in Table 7, the substitutions relative to the wild-type protein result in longer pulse widths with each peptide tested.

In test [5] the test system is amino acid at a terminal position of a polypeptide. The test is described as follows: Amino acid binding preference of recognition proteins (Tables 1 and 2). Conditions: Table 1, ClpS proteins; amino acid identity at a terminal position of a polypeptide; inferred from literature and/or demonstrated by the inventors. From the text:
It should be appreciated that these sequences and other examples described herein are meant to be non-limiting, and recognition molecules in accordance with the application can include any homologs, variants thereof, or fragments thereof minimally containing domains or subdomains responsible for peptide recognition.

Where two headings read alike, the source gives them in different places.

B1: PS538: UBR-box domain homolog, SEQ ID NO: 166 (protein, listed as Saccharomyces cerevisiae)
chain: MGDVHKHTGRNCGRKFKIGEPLYRCHECGCDDTCVLCIHCFNPKDHVNHHVCTDICTEFTSGICDCGDEEAWNSPLHCKAEEQ
Turning to B1, the “Binding Pref.” value in test [1] was “K, R, H”. Also, the “binding to RA/KA/HA peptides (single-point screening)” value (“binding to RA/KA/HA peptides” for short) in test [2] was “favorable binding trajectories to RA and KA peptides with notably high response for RA peptide”.

B2: PS612: polypeptide with tandem copies of two different ClpS monomers (atClpS2-V1 and PS372) (protein)
chain: MSDSPVDLKPKPKVKPKLERPKLYKVMLLNDDYTPMSFVTVVLKAVFRMSEDTGRRVMMTAHRFGSAVVVVCERDIAETKAKEATDLGKEAGFPLMFTTEPEEGSAGSAAGSGEFMAFPARGKTAPKNEVRRQPPYNVILLNDDDHTYRYVIEMLQKIFGFPPEKGFQIAEEVDRTGRVILLTTSKEHAELKQDQVHSYGPDPYLGRPCSGSMTCVIEPAVGGSHHHHHHHHHHGGGSGGGSGGGSGLNDFFEAQKIEWHEGGGSGGGSGGGSGLNDFFEAQKIEWHE
For the molecule B2, the “N-terminal amino acids bound (biolayer interferometry)” value (shortened to “N-terminal amino acids bound”) in test [3] is “N-terminal F, W, Y, I, L, and V”.

B3: PS535: UBR-box domain homolog, SEQ ID NO: 163 (protein, listed as Mus musculus)
chain: MLCGRVFKVGEPTYSCRDCAVDPTCVLCMECFLGSIHRDHRYRMTTSGGGGFCDCGDTEAWKEGPYCQKHKL
As for B3, in test [1], the “Binding Pref.” value is “K, R, H”. Also, in test [2], the “binding range for RX dipeptides” value is “extensive binding range for RX dipeptides”; the “dissociation rates with R dipeptides” value is on record as “faster dissociation rates”; the “binding affinity to N-terminal R with different penultimate amino acids” value was “high binding affinity to R in the presence of a wide range of penultimate amino acids”; the “binding to RA/KA/HA peptides” value was “favorable binding trajectories to RA and KA peptides with notably high response for RA peptide”.

B4: PS637: two copies of PS557 in tandem separated by Linker 1 (protein)
chain: MPTAASATESAIEDTPAPARPEVDGRTKPKRQPRYHVVLWNDDDHTYQYVVVMLQSLFGHPPERGYRLAKEVDTQGRVIVLTTTREHAELKRDQIHAFGYDRLLARSKGSMKASIEAEEGGGSGGGSGGGSGMPTAASATESAIEDTPAPARPEVDGRTKPKRQPRYHVVLWNDDDHTYQYVVVMLQSLFGHPPERGYRLAKEVDTQGRVIVLTTTREHAELKRDQIHAFGYDRLLARSKGSMKASIEAEEGGSHHHHHHHHHHGGGSGGGSGGGSGLNDFFEAQKIEWHEGGGSGGGSGGGSGLNDFFEAQKIEWHE
Turning to B4, in test [3], the “N-terminal amino acids bound” value was “N-terminal I, L, and V”.

B5: PS614: polypeptide with two copies of the ClpS binder PS372 oriented in tandem (protein)
chain: MAFPARGKTAPKNEVRRQPPYNVILLNDDDHTYRYVIEMLQKIFGFPPEKGFQIAEEVDRTGRVILLTTSKEHAELKQDQVHSYGPDPYLGRPCSGSMTCVIEPAVGSAGSAAGSGEFMAFPARGKTAPKNEVRRQPPYNVILLNDDDHTYRYVIEMLQKIFGFPPEKGFQIAEEVDRTGRVILLTTSKEHAELKQDQVHSYGPDPYLGRPCSGSMTCVIEPAVGGSHHHHHHHHHHGGGSGGGSGGGSGLNDFFEAQKIEWHEGGGSGGGSGGGSGLNDFFEAQKIEWHE
For the molecule B5, the “N-terminal amino acids bound” value in test [3] was “N-terminal I, L, and V”.

B6: PS638: two copies of PS557 in tandem separated by Linker 2 (protein)
chain: MPTAASATESAIEDTPAPARPEVDGRTKPKRQPRYHVVLWNDDDHTYQYVVVMLQSLFGHPPERGYRLAKEVDTQGRVIVLTTTREHAELKRDQIHAFGYDRLLARSKGSMKASIEAEEGSAGSAAGSGEFMPTAASATESAIEDTPAPARPEVDGRTKPKRQPRYHVVLWNDDDHTYQYVVVMLQSLFGHPPERGYRLAKEVDTQGRVIVLTTTREHAELKRDQIHAFGYDRLLARSKGSMKASIEAEEGGSHHHHHHHHHHGGGSGGGSGGGSGLNDFFEAQKIEWHEGGGSGGGSGGGSGLNDFFEAQKIEWHE
Take B6: in test [3], the “N-terminal amino acids bound” value was “N-terminal I, L, and V”.

B7: PS218: designed variant of atClpS1 with active-site substitutions, SEQ ID NO: 98 (protein)
chain: MIAEPICMQGEGDGEDGGTNRGTSVITRVKPKTKRPNLYRVLLLNDDYTPFQFVIHILERFFQKDREAAWRITLHVHQHGVGECGVFTYEVAETKVSQVMDFARQHQHPLQCVMEKK
Regarding B7, the “Median PW” value came to 0.78 in test [4] (FA peptide), 0.32 in test [4] (LF peptide), 0.58 in test [4] (WA peptide) and 1.06 in test [4] (YA peptide). Besides, the mean pulse width in test [4] (FA peptide) came to 1.28; in test [4] (LF peptide), 0.56; in test [4] (WA peptide), 1.00; in test [4] (YA peptide), 1.64. In addition, the “Binding Pref.” value in test [5] was “F, W, Y, L”.

B8: PS522: UBR-box domain homolog, SEQ ID NO: 150 (protein, listed as Vombatus ursinus)
chain: MLCGKVFKSGETTYSCRDCAIDPTCVLCMNCFQSSVHKNHRYKMHTSTGGGFCDCGDTEAWKTGPFCTIHEP
As for B8, in test [1], the “Binding Pref.” value was “K, R, H”. Also, in test [2], the “binding range for RX dipeptides” value was “extensive binding range for RX dipeptides”; the “dissociation rates with R dipeptides” value was “faster dissociation rates”; the “binding affinity to N-terminal R with different penultimate amino acids” value is given as “high binding affinity to R in the presence of a wide range of penultimate amino acids”; the “binding to RA/KA/HA peptides” value is “favorable binding trajectories to RA and KA peptides with notably high response for RA peptide”.

B9: PS505: UBR-box domain homolog, SEQ ID NO: 133 (protein, listed as Brachionus plicatilis)
chain: MVCGRVFKSGEPSYFCRECGTDPTCVLCSICFRHSKHRYHKYVMMTSGGGGYCDCGDPEAWKSDPCCELHMP
For the molecule B9, the “Binding Pref.” value in test [1] is reported as “K, R, H”. The “binding affinity to N-terminal R with different penultimate amino acids” value in test [2] is reported as “high binding affinity to R in the presence of a wide range of penultimate amino acids”.

B10: PS639: two copies of PS557 in tandem separated by Linker 3 (protein)
chain: MPTAASATESAIEDTPAPARPEVDGRTKPKRQPRYHVVLWNDDDHTYQYVVVMLQSLFGHPPERGYRLAKEVDTQGRVIVLTTTREHAELKRDQIHAFGYDRLLARSKGSMKASIEAEEGSAGSAAGSGEFGSAGSAAGSGEFGSAGSAAGSGEFMPTAASATESAIEDTPAPARPEVDGRTKPKRQPRYHVVLWNDDDHTYQYVVVMLQSLFGHPPERGYRLAKEVDTQGRVIVLTTTREHAELKRDQIHAFGYDRLLARSKGSMKASIEAEEGGSHHHHHHHHHHGGGSGGGSGGGSGLNDFFEAQKIEWHEGGGSGGGSGGGSGLNDFFEAQKIEWHE
Consider B10, for which, in test [3], the “N-terminal amino acids bound” value is “N-terminal I, L, and V”.

The values above are taken from patent US12065466B2, “Methods and compositions for protein sequencing” (Quantum-Si Incorporated, priority 2020, dated 2024).
